# Laboratory results taken from publication PMC7351599.
# Molecular target: TMIEdel80–100-HA (UniProt Q8K467)
# Experiment: co-IP
binder,measurement,value
MYC-TMC1 (natural protein) MLQIQVEEKEEDTEESSSEEEEDKLPRRESLRPKRKRTRDVINEDDPEPEPEDEETRKAREKERRRRLRRGAEEEEEIDEEELERLKALLDENRQMIATVKCKPWKMEKKIEVLKEAKKFVSENEGALGKGKGKKWFAFKMMMAKKWAKFLRDFENFKAACVPWENKIKAIESQFGSSVASYFLFLRWMYGVNMVLFVLTFSLIMLPEYLWGLPYGSLPRKTVPRAEEASAANFGVLYDFNGLAQYSVLFYGYYDNKRTIGWLNFRLPLSYFLVGIMCIGYSFLVVLKAMTKNIGDDGGGDDNTFNFSWKVFCSWDYLIGNPETADNKFNSITMNFKEAIIEERAAQVEENIHLIRFLRFLANFFVFLTLGASGYLIFWAVKRSQEFAQQDPDTLGWWEKNEMNMVMSLLGMFCPTLFDLFAELEDYHPLIALKWLLGRIFALLLGNLYVFILALMDEINNKIEEEKLVKANITLWEANMIKAYNESLSGLSGNTTGAPFFVHPADVPRGPCWETMVGQEFVRLTVSDVLTTYVTILIGDFLRACFVRFCNYCWCWDLEYGYPSYTEFDISGNVLALIFNQGMIWMGSFFAPSLPGINILRLHTSMYFQCWAVMCCNVPEARVFKASRSNNFYLGMLLLILFLSTMPVLYMIVSLPPSFDCGPFSGKNRMFEVIGETLEHDFPSWMAKILRQLSNPGLVIAVILVMVLTIYYLNATAKGQKAANLDLKKKMKQQALENKMRNKKMAAARAAAAAGGQ,percent reduction of co-IP against TMIE-HA,80%
